Experimental data as given in article PMC10360156.
Changes are numbered by the printed parent chain. Names and notes keep the numbering of the source.

B1: human small heat shock protein HSPB8 (wild type) (natural protein)
chain: MADGQMPFSCHYPSRLRRDPFRDSPLSSRLLDDGFGMDPFPDDLTASWPDWALPRLSSAWPGTLRSGMVPRGPTATARFGVPAEGRTPPPFPGEPWKVCVNVHSFKPEELMVKTKDGYVEVSGKHEEKQQEGGIVSKNFTKKIQLPAEVDPVTVFASLSPEGLLIIEAPQVPPYSTFGESSFNNELPQDSQEVTCT
B2: HSPB8-K141E, pathogenic mutant of human HSPB8 (natural protein)
chain: B1 chain with K141E

Tests used:
[1] = target: four maltose binding proteins arranged in tandem (4MBP)
[2] = target: four maltose binding proteins arranged in tandem (4MBP); remark: listed apart in the source
[3] = target: four maltose binding proteins arranged in tandem (4MBP); remark: listed apart in the source

Row | Binder | no. of weak aggregates of 4MBP per trace with 5 μM HSPB8 (No HSPB8: 1.16) (aggregates per trace) [1] | percentage of residues of 4MBP forming weak aggregates after unfolding and 5 s relaxation at 0 pN, with 5 μM HSPB8 (40% in the absence of chaperone) [2] [%] | percentage of residues of 4MBP in tight aggregates (not unfolded at 63 pN) after unfolding and relaxation, with 5 μM HSPB8 [2] [%] | no. of weak aggregates of 4MBP per trace with 5 μM HSPB8-K141E (No HSPB8: 1.16) (aggregates per trace) [1] | percentage of residues of 4MBP forming weak aggregates after unfolding and relaxation, with 5 μM HSPB8-K141E (19% for wild-type HSPB8; 40% in the absence of chaperone) [3] [%]
1 | B1 | 0.64 | 19 | < 2 | – | –
2 | B2 | – | – | – | 0.85 | 31
